1 molecule from patent US20230405078A1, “DETECTION AND TREATMENT OF INTESTINAL FIBROSIS” (THE REGENTS OF THE UNIVERSITY OF CALIFORNIA, priority 2020, published 2023) can be followed below.

The test system of assay [1] is Human colonic CCD-18Co fibroblasts. The experiment in a line: TGF-β1-induced fibrogenesis in CCD-18Co fibroblasts. Type of assay: cell-based. As to conditions: TGF-β1-treated CCD-18Co fibroblasts; elafin 1 μg/ml. As for the experimental part:
Cleveland Clinic IRB directives (IRB #17-1167). Primary non-IBD patient-derived colonic fibroblasts (H6231) were purchased from Cell Biologics. All primary colonic fibroblasts were cultured in fibroblast medium (M2267, Cell Biologics). Human colonic CCD-18Co fibroblasts (ATCC) were cultured in minimal essential medium Eagle's medium (MEM) containing 10% fetal bovine serum and 1% penicillin-streptomycin 6, 20. All fibroblasts were grown to 80% confluence and then switched to serum-free media overnight for experiments.
For activation of protease-activated receptors (PARs), fibroblasts were pretreated with 0.8% DMSO, 10 μM PAR1 agonist TRAP-6 (HY-P0078, MCE), 10 μM PAR2 agonist SLIGKV-NH2 (Protease-Activated Receptor-2, amide, HY-P0283, MCE), or 0.4 μg/ml PAR2-activating protease recombinant cathepsin S (1183-CY-010, R&D Systems) for 30 minutes. For miR205-5p activation, fibroblasts were transfected with (30 picomoles/well) either control (YM00479902) or miR205-5p miRCURY LNA mimic (YM00472340) from Qiagen via Lipofectamine 3000 transfection reagent (L3000001, ThermoFisher) in Opti-MEM (#31985062, ThermoFisher) overnight. For miR205-5p inhibition, fibroblasts were pretreated with 50nM either control (Y100199006) or miR205-5p power inhibitors (Y104101508-DDA) from Qiagen overnight. […]

In the next assay the test system is ERK1/2 phosphorylation. The experiment in a line: Phospho-ERK1/2 ELISA in CCD-18Co fibroblasts. Type of assay: cell-based, human. As to conditions: elafin 1 μg/ml, 2 hours. The procedure:
FIG. 27. Elafin inhibited ERK1/2 phosphorylation in intestinal fibroblasts via PAR2. (A) Serum starved CCD-18Co and primary stricturing CD patient-derived colonic fibroblasts were transiently transfected with either control siRNA or ZEB1 siRNA overnight, followed by treatment with 10 ng/ml TGF-β1 or 100 μg/ml stricturing CD patient-derived serum exosomes (CDSE) for 24 hours. (B) CCD-18Co fibroblasts were treated with DMSO, PAR1 inhibitor (SCH79797), or PAR2 inhibitor (GB88) for 2 hours. GB88 inhibited ERK1/2 phosphorylation. (C) CCD-18Co fibroblasts were pretreated with DMSO, PAR1 agonist, or PAR2 agonists for 30 minutes, followed by TGF-β1 10 ng/ml. Two hours later, elafin (1 μg/ml) and incubated for 2 hours. Elafin inhibited ERK1/2 phosphorylation, which was reversed by PAR2 agonist. […] Phospho-ERK1/2, ProCOL1A1, COL1A2, and ZEB1 protein were determined by ELISA. miR205-5p expression was determined by real-time RT-PCR. […]
FIG. 28. […] (D) Quantification of cathepsin S signals (B7-8) and control signals (A1-2 and E1-2) on the protease array using Bio-Rad Image Lab Software. […] Phospho-ERK1/2 was determined by ELISA. […] ProCOL1A1 and COL1A2 were determined by ELISA. […]
For orientation: ELISA stands for enzyme-linked immunosorbent assay.

B1: Cathepsin S: PAR2-activating protease recombinant cathepsin S (protein)
chain: QLHKDPTLDHHWHLWKKTYGKQYKEKNEEAVRRLIWEKNLKFVMLHNLEHSMGMHSYDLGMNHLGDMTSEEVMSLMSSLRVPSQWQRNITYKSNPNRILPDSVDWREKGCVTEVKYQGSCGACWAFSAVGALEAQLKLKTGKLVSLSAQNLVDCSTEKYGNKGCNGGFMTTAFQYIIDNKGIDSDASYPYKAMDQKCQYDSKYRAATCSKYTELPYGREDVLKEAVANKGPVSVGVDARHPSFFLYRSGVYYEPSCTQNVNHGVLVVGYGDLNGKEYWLVKNSWGHNFGEEGYIRMARNKGNHCGIASFPSYPEI
Regarding B1, the “effect on elafin-mediated inhibition of collagen expression” value in assay [1] is listed as “reversed”. For the same molecule, the “effect on elafin-mediated inhibition of ERK1/2 phosphorylation” value with ERK1/2 phosphorylation is “reversed”.
